# How the values were obtained:
# Assay in all cases: cell-based or functional assay
# [1] = target: HIPK3(h) (human) (UniProt Q9H422)
# [2] = target: T1, TBK1(h) (human) (UniProt Q9UHD2)
# T1 sequence (looked up): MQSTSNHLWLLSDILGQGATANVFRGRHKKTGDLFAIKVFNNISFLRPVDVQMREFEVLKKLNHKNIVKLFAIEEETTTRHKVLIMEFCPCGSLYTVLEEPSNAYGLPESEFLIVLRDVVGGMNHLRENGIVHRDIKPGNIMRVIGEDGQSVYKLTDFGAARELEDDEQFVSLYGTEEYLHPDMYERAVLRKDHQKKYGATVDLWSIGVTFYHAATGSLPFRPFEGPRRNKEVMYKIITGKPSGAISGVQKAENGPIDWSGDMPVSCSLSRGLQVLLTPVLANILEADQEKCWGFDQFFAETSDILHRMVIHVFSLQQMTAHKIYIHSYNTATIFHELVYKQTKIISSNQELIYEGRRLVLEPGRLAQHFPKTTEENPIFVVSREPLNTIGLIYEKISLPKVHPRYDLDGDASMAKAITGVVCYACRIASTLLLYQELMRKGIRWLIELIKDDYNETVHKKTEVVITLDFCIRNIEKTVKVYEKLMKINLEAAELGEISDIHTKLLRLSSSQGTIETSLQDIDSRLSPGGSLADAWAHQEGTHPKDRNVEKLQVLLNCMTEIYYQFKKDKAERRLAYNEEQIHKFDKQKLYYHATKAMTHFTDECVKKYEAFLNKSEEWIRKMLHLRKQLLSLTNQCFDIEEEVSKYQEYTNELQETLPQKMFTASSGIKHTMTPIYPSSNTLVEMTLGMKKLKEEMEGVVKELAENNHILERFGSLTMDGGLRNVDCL
# [3] = target: EGFR(T790M)(h) (human) (UniProt P00533)
# [4] = target: MST3(h) (human) (UniProt Q9Y6E0)
# [5] = target: PDGFRα(D842V)(h) (human) (UniProt P16234)
# [6] = target: Pyk2 (h) (human) (UniProt Q14289)
# Pyk2 (h) (human), sequence (Q14289 whole entry): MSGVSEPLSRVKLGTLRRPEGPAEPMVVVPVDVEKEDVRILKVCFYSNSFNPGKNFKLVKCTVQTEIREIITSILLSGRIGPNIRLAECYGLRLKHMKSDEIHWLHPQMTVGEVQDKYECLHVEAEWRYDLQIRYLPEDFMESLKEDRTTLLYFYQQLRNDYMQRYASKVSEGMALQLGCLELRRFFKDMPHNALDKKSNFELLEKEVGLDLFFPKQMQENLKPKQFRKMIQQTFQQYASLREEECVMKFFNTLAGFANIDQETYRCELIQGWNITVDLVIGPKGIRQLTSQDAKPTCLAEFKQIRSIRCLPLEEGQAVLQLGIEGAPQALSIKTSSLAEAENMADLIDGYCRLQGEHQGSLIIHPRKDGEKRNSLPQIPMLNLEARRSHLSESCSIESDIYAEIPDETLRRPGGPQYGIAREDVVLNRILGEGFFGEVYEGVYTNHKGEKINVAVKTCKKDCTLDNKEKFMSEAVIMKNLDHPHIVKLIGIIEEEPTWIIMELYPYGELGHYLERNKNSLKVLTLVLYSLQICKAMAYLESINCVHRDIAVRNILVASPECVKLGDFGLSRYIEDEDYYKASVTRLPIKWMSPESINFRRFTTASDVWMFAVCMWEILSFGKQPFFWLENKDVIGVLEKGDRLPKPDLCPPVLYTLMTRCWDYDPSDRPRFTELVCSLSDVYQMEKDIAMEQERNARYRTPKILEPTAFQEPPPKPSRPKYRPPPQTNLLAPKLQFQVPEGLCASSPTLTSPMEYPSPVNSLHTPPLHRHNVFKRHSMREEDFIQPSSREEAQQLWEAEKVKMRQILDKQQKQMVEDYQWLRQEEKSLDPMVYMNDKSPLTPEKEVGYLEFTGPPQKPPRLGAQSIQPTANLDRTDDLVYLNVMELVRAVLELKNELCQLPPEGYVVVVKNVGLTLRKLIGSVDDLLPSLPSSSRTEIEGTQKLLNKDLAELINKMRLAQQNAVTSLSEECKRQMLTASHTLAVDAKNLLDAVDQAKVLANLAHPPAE
# [7] = target: CaMKIIδ(h) (human) (UniProt Q13557)
# CaMKIIδ(h) (human), sequence (Q13557 whole entry, stated change not applied): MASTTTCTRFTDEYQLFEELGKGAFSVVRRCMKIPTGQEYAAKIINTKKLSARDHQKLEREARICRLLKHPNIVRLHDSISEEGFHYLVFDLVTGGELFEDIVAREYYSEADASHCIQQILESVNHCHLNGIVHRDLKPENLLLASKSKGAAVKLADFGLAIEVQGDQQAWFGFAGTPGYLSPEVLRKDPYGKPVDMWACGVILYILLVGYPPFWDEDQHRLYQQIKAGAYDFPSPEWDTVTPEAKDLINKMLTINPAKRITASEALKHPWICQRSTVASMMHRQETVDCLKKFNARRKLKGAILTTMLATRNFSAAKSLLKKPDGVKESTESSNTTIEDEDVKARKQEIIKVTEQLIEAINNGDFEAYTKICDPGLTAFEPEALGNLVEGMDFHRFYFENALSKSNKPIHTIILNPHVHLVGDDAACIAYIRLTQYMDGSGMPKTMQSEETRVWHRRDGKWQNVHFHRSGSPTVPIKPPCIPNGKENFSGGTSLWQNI
# [8] = target: PKCβII(h) (human) (UniProt P05771)
# PKCβII(h) (human), sequence (P05771 other isoform, or with tags, fused parts or gaps): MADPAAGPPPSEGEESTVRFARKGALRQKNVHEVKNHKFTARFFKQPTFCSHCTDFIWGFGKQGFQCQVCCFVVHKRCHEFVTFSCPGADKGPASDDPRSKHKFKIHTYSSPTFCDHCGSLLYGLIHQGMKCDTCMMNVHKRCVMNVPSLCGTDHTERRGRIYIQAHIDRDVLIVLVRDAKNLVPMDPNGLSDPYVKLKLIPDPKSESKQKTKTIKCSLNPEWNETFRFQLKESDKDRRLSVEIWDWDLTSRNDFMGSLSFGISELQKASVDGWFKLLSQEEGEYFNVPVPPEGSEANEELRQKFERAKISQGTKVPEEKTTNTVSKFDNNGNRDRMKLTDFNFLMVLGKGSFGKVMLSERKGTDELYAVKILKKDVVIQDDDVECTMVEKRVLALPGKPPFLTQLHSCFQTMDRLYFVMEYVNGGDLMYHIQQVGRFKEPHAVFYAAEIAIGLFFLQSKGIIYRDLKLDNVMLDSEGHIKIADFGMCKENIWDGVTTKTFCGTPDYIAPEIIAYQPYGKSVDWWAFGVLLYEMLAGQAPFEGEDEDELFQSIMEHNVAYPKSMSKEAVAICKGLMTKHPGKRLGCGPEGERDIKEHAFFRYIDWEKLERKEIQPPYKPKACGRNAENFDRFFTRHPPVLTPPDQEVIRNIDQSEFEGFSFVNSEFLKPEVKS
# [9] = target: Ros(h) (human) (UniProt P08922)
# [10] = target: Rsk2(h) (human) (UniProt P51812)
# Rsk2(h) (human), sequence (P51812 whole entry): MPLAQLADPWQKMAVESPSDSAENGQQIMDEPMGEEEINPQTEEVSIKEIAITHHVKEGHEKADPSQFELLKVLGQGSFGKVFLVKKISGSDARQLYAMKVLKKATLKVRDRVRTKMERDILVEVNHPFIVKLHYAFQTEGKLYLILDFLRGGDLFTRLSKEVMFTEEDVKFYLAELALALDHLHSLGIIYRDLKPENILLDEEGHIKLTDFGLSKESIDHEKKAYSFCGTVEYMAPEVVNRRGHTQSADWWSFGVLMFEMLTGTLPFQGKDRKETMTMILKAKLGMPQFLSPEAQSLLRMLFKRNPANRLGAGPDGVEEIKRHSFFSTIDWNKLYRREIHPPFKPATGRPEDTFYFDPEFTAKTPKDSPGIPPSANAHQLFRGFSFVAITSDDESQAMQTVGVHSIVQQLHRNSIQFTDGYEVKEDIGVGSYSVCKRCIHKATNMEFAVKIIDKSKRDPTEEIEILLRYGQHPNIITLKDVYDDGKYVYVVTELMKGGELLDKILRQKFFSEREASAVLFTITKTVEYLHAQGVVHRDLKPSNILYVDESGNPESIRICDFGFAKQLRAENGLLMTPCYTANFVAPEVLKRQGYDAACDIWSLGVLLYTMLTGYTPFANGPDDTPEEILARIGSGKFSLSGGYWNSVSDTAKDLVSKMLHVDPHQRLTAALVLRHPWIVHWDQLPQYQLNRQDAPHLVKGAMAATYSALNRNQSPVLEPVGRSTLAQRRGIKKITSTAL
# [11] = target: Tie2(Y897S)(h) (human) (UniProt Q02763)
# Tie2(Y897S)(h) (human), sequence (Q02763 771-1124 Y897S limits assumed): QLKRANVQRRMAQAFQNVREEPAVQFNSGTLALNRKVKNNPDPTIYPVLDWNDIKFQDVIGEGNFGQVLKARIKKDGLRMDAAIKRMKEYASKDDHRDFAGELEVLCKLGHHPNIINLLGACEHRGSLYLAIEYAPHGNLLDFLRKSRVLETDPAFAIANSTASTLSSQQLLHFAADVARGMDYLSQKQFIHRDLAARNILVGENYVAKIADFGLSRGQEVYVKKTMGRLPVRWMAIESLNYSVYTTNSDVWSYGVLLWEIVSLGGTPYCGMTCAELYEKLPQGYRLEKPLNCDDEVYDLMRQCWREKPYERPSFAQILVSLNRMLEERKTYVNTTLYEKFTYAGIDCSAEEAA
# [12] = target: T2, Fms(h) (human) (UniProt P07333)
# T2 sequence (looked up): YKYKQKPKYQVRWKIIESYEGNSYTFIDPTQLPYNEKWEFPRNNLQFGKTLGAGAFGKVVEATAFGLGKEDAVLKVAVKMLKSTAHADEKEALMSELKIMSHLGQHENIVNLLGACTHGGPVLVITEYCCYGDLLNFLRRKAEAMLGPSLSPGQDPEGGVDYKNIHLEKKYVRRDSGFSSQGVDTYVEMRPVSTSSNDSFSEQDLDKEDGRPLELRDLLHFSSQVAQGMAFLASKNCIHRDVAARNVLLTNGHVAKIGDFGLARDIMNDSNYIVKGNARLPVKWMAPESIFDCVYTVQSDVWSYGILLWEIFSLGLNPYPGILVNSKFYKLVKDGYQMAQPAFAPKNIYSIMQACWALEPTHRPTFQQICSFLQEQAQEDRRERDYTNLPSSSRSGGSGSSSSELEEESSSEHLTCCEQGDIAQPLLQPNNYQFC
# [13] = target: TrkB(h) (human) (UniProt Q16620)
# TrkB(h) (human), sequence (Q16620 455-822 limits assumed): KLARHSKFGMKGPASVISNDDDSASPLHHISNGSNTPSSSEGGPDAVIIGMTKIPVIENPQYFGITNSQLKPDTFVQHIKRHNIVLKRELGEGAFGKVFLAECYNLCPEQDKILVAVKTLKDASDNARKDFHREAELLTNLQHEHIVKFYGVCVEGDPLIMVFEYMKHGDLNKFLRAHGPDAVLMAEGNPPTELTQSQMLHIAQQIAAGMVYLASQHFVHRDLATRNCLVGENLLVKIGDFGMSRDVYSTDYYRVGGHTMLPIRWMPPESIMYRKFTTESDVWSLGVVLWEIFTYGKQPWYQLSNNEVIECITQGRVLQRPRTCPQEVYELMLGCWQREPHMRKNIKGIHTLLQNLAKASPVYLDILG
# [14] = target: CDK5/p25(h) (human) (UniProt Q00535)
# [15] = target: Abl(h) (human) (UniProt P00519)
# [16] = target: HIPK1(h) (human) (UniProt Q86Z02)
# HIPK1(h) (human), sequence (Q86Z02 158-555 limits assumed): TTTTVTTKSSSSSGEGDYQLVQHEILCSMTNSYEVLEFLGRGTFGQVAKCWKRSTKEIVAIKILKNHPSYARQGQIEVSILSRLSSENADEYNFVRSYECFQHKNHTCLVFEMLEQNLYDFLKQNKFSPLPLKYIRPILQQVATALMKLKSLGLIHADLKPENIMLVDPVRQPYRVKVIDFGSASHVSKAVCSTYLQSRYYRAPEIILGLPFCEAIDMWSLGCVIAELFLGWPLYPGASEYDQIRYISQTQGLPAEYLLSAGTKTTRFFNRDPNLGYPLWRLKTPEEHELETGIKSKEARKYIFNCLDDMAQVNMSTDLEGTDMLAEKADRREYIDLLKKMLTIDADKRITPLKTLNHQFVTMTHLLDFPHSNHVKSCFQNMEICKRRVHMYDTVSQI
# [17] = target: T3, Txk(h) (human) (UniProt P42681)
# T3 sequence (looked up): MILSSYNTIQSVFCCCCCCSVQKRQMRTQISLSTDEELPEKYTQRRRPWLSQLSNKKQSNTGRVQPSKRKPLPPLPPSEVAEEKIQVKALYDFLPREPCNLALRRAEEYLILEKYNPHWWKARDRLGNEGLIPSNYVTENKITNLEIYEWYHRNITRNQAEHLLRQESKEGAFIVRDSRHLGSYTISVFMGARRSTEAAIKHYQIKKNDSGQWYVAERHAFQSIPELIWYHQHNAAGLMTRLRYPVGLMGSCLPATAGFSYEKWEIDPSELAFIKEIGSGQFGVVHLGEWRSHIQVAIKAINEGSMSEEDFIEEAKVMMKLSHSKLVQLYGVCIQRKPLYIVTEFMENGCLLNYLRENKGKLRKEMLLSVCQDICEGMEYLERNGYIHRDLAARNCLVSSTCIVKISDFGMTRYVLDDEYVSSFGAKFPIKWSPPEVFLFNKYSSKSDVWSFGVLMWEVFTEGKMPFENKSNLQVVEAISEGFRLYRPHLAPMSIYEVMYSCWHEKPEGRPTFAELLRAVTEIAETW
# [18] = target: T4, ULK3(h) (human) (UniProt Q6PHR2)
# T4 sequence (looked up): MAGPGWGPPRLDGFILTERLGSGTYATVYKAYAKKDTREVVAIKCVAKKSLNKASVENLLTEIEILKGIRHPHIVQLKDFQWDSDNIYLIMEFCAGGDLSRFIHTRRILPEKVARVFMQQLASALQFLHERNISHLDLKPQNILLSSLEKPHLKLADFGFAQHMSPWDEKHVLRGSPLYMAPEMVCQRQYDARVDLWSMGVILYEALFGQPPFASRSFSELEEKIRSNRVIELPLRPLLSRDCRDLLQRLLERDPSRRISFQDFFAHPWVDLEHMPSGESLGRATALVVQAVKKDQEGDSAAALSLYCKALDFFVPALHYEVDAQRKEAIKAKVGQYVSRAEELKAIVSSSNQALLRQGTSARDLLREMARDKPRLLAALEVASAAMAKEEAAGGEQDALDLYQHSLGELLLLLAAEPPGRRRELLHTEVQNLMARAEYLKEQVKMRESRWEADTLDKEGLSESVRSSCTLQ
# [19] = target: MINK(h) (human) (UniProt Q8N4C8)
# MINK(h) (human), sequence (Q8N4C8 1-320 limits assumed): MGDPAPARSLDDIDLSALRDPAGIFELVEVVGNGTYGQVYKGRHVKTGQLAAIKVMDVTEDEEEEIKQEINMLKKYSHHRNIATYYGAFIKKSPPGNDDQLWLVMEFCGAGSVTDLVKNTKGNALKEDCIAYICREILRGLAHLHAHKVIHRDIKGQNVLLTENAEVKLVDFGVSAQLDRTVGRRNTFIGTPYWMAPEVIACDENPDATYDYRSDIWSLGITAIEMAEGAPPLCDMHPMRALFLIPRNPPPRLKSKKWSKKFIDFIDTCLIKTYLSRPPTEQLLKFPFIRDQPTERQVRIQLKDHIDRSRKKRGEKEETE
# [20] = target: PKCγ(h) (human) (UniProt P05129)
# HIPK3(h) (human), sequence (Q9H422 163-562 limits assumed): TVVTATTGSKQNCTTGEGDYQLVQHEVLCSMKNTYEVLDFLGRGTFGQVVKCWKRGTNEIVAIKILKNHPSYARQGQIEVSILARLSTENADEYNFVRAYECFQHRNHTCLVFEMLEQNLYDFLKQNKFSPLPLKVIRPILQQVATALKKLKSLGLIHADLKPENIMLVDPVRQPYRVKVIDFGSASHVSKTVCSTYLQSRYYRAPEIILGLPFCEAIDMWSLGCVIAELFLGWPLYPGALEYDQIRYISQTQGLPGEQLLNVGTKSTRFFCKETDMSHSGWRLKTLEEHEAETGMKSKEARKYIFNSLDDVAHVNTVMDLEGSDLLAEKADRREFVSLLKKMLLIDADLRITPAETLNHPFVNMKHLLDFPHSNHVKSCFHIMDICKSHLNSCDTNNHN
substance,measurement,setting,value
MMI-0500 (peptide),"% activity, 100 µM",[1],85%
same,"% activity, 100 µM",[2],16%
same,"% activity, 100 µM",[3],70%
same,"% activity, 100 µM",[4],4%
same,"% activity, 100 µM",[5],170%
same,"% activity, 100 µM",[6],46%
same,"% activity, 100 µM",[7],1%
same,"% activity, 100 µM",[8],3%
same,"% activity, 100 µM",[9],150%
same,"% activity, 100 µM",[10],14%
same,"% activity, 100 µM",[11],80%
same,"% activity, 100 µM",[12],14%
same,"% activity, 100 µM",[13],12%
same,inhibition of kinase activity at 100 µM,[13],> 65%
same,"% activity, 100 µM",[14],66%
same,"% activity, 100 µM",[15],16%
same,"% activity, 100 µM",[16],47%
same,"% activity, 100 µM",[17],10%
same,"% activity, 100 µM",[18],177%
same,"% activity, 100 µM",[19],5%
same,"% activity, 100 µM",[20],6%
